Data reported in the supplement of paper PMC9233669.
Variants at the floor of the assay were thinned out.

How the values were obtained:
[1] = system: biotinyl-Phe-oxazolone; test: self-aminoacylation, catalytic enhancement (BFO) (fold over background); higher = more active; k-Seq, kA / k0A0; sequences stand for … in GGGAAUGGAUCCACAUCUACGAAUUC…UUCACUGCAGACUUGACGAAGCUG
In short: (§1)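 Working in 50 μL HEPES/NaCl/KCl/MgCl2/CaCl2 buffer with 5% acetonitrile at pH 6.9–7.0, mutagenized RNA pools (0.43 μM; 21-nt variable region) were reacted with 2–1250 μM of each biotinyl-aminoacyl-oxazolone for 90 minutes at room temperature. Streptavidin capture followed, with quantification by triplicate qPCR and Illumina sequencing. Catalytic enhancement is reported as median kA over the uncatalyzed rate, the low-activity peak of a bimodal Gaussian fit to the data.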

[2] = system: biotinyl-Leu-oxazolone; test: self-aminoacylation, catalytic enhancement (BLO) (fold over background); higher = more active; k-Seq, kA / k0A0; sequences stand for … in GGGAAUGGAUCCACAUCUACGAAUUC…UUCACUGCAGACUUGACGAAGCUG
In short: as §1

[3] = system: biotinyl-Ile-oxazolone; test: self-aminoacylation, catalytic enhancement (BIO) (fold over background); higher = more active; k-Seq, kA / k0A0; sequences stand for … in GGGAAUGGAUCCACAUCUACGAAUUC…UUCACUGCAGACUUGACGAAGCUG
In short: as §1

[4] = system: biotinyl-Met-oxazolone; test: self-aminoacylation, catalytic enhancement (BMO) (fold over background); higher = more active; k-Seq, kA / k0A0; sequences stand for … in GGGAAUGGAUCCACAUCUACGAAUUC…UUCACUGCAGACUUGACGAAGCUG
In short: as §1

[5] = system: biotinyl-Trp-oxazolone; test: self-aminoacylation, catalytic enhancement (BWO) (fold over background); higher = more active; k-Seq, kA / k0A0; sequences stand for … in GGGAAUGGAUCCACAUCUACGAAUUC…UUCACUGCAGACUUGACGAAGCUG
In short: as §1

[6] = system: biotinyl-Val-oxazolone; test: self-aminoacylation, catalytic enhancement (BVO) (fold over background); higher = more active; k-Seq, kA / k0A0; sequences stand for … in GGGAAUGGAUCCACAUCUACGAAUUC…UUCACUGCAGACUUGACGAAGCUG
In short: as §1

Sequence	self-aminoacylation [1]	self-aminoacylation [2]	self-aminoacylation [3]	self-aminoacylation [4]	self-aminoacylation [5]	self-aminoacylation [6]
AUUCACCUAGGCCAUCGGGUA [Fam2.2 aminoacylation ribozyme variant]	16.4	3.81	2.42	3.31	3.52	2.21
AUUACCCUCGUCAUCUAGUGA [Fam2.1 aminoacylation ribozyme variant]	9.86	3.57	2.3	3.26	4.43	2.7
AAGUUUGCUUAUUGUCGCAAG [Fam3.1 aminoacylation ribozyme variant]	0.903	0.686	0.771	0.641	0.97	0.713
CCACACUCCAAGUAAUCGGUC [Fam1B.1 aminoacylation ribozyme variant]	1.97	0.919	1.01	0.951	1.29	0.95
AAGUUUACAAAUAGUCGCAAG [Fam3.1 aminoacylation ribozyme variant]	2.51	1.8	1.92	1.51	1.98	1.66
AAGUUUGCUAAUAGUCGCAAU [Fam3.1 aminoacylation ribozyme variant]	1.68	1.19	1.42	1.25	1.22	1.26
AAGUCUGCUAAUAGUCGCCAG [Fam3.1 aminoacylation ribozyme variant]	1.8	1.04	1.1	1.34	3.43	1.32
CAACACUUCAAGCAAUCCGUC [Fam1B.1 aminoacylation ribozyme variant]	1.12	1.02	1.24	1.19	0.727	1.31
AUUCACCUAGGCCAUUGGGUG [Fam2.2 aminoacylation ribozyme variant]	34.9	5.31	3.11	4.09	3.71	2.85
CUACGUCAAACAUUCGGUCUG [Fam1A.1 aminoacylation ribozyme variant]	12.8	2.5	2.87	2.93	3.07	3.79
CUACUUCAAAAAAUCGGUCCG [Fam1A.1 aminoacylation ribozyme variant]	1.57	0.761	0.724	0.749	1.31	0.604
AUUCACCUAGGUCAUCCGGUG [Fam2.2 aminoacylation ribozyme variant]	44.9	8.38	4.67	6.35	6.3	4.69
CUACUUCAGACGAUCGGUCUG [Fam1A.1 aminoacylation ribozyme variant]	0.484	0.954	0.727	1.24	0.788	1.01
CCACACUCCAAGCAAACGGUC [Fam1B.1 aminoacylation ribozyme variant]	1.06	0.861	0.95	0.934	1.21	0.773
CCACACUUCAAGCCAUCGUUC [Fam1B.1 aminoacylation ribozyme variant]	0.848	1.24	1.08	1.03	0.897	1.35
ACUCACCUAGGUCAUAGGGUG [Fam2.2 aminoacylation ribozyme variant]	1.46	1.39	1.31	1.57	1.58	1.36
AAGUUUGCUAUUAGACGCAAG [Fam3.1 aminoacylation ribozyme variant]	1.08	0.691	0.577	0.712	0.55	0.894
AAGUUUGCUAAUAGACACAAG [Fam3.1 aminoacylation ribozyme variant]	1.23	0.654	0.828	0.665	0.797	0.916
AUUCACCUAUGGCAUCGGGUG [Fam2.2 aminoacylation ribozyme variant]	11.9	2.84	1.96	2.41	2.25	1.94
AUUGCCCUGGACAUCGAGUGA [Fam2.1 aminoacylation ribozyme variant]	24.8	5.58	2.41	5.71	5.92	3.11
AAGUUUUCUAAUCGUCGCAAG [Fam3.1 aminoacylation ribozyme variant]	2.56	1.79	1.75	1.68	1.65	1.69

Sequence	self-aminoacylation [1]	self-aminoacylation [2]	self-aminoacylation [3]	self-aminoacylation [4]	self-aminoacylation [5]	self-aminoacylation [6]
AUUCACCUAGGUCGUCGGGUG [Fam2.2 aminoacylation ribozyme variant]	9.32	2.09	1.61	1.84	1.66	1.77
CUACAUCAAACCAUCGGUCUG [Fam1A.1 aminoacylation ribozyme variant]	1.04	0.889	0.834	0.791	0.6	0.932
CUACUUCAAACAGUCGUUCUG [Fam1A.1 aminoacylation ribozyme variant]	0.701	0.475	0.579	0.589	0.472	0.611
AUUCACCUAGGUCAUCUGUUG [Fam2.2 aminoacylation ribozyme variant]	0.429	0.618	0.795	0.564	0.373	0.693
AUUCACCUACGUCAUAGGGUG [Fam2.2 aminoacylation ribozyme variant]	0.864	1.02	0.915	1.34	0.634	0.933
AUUCACCUACGUGAUCGGGUG [Fam2.2 aminoacylation ribozyme variant]	20.2	3.64	2.19	2.81	3.44	2
UUACUUUAAACAAUCGGUCUG [Fam1A.1 aminoacylation ribozyme variant]	1.4	0.878	1.11	1.38	1.25	1.11
AUUCACCUAGGUCACCGUGUG [Fam2.2 aminoacylation ribozyme variant]	4.55	1.48	1.13	1.33	1.24	1.33
CUACUUCAAACAAUUGGUUUG [Fam1A.1 aminoacylation ribozyme variant]	0.803	0.721	0.757	0.676	0.708	0.7
AUUACACUGAUCAUCGAGUGA [Fam2.1 aminoacylation ribozyme variant]	21.1	6.95	3.19	6.59	7.71	3.71
UAGUUAGCUAAUAGUCGCAAG [Fam3.1 aminoacylation ribozyme variant]	2.37	1.8	1.72	2.06	1.11	1.52
CUACACUUCAAGCAAUCGGUG [Fam1B.1 aminoacylation ribozyme variant]	5.79	4.94	2.71	3.49	4.25	2.61
AUGCACUUAGGUCAUCGGGUG [Fam2.2 aminoacylation ribozyme variant]	62.8	10.6	5.29	8.73	7.92	5.03
AAGUUUGCUUAUAGUCGCAAG [Fam3.1 aminoacylation ribozyme variant]	1.13	0.768	0.849	0.801	0.847	0.862
ACUCACCUAGGUCAGCGGGUG [Fam2.2 aminoacylation ribozyme variant]	31.4	4.43	3.56	4.16	4.54	3.86
AUUCCCCUAAGUCAUCGGGUG [Fam2.2 aminoacylation ribozyme variant]	498	85.8	38.6	59.1	62.2	37.9
AUUACCCUGAUCAUCGAGUGA [Fam2.1 aminoacylation ribozyme variant]	21.8	7.82	3.8	7.96	9.57	4.15
AUAACCAUGGUCAUCGAGUGA [Fam2.1 aminoacylation ribozyme variant]	23.8	7.68	3.91	7.91	8.43	3.7
AUUUCCCAGGUCAUCGAGUGA [Fam2.1 aminoacylation ribozyme variant]	26.3	5.63	2.89	5.06	6.32	3.4
CCGCACUUCAAGCAAUCGGCC [Fam1B.1 aminoacylation ribozyme variant]	6.69	1.61	1.97	1.71	6.53	3.21
CCACACUUCAAGCAUUCAGUC [Fam1B.1 aminoacylation ribozyme variant]	1.03	0.576	0.878	0.505	0.562	0.758
